Assay results as given in patent US20120231006A1 (Amgen, published 2012).

B1: mAb 5D7.2 (antibody, human IgG2, lambda, V domains shown)
VH: QVQLVQSGAEVKKPGASVKVSCKASGYTFTDYYMNWVRQAPGQGLEWMGWINPNSGGTKYAQKFQGRVTMTRDTSIRTAYMELSRLRSDDTAVYYCAREYGGNSDWFDPWGQGTLVTVSS
VL: QSVLTQPPSVSGAPGQRVTISCTGSSSNIGAGYDVHWYQQSPGTAPKLLIYGNSNRPSGVPDRFSGSKSGTSASLAITGLQAEDEADYYCQSYDNRLSDSVVIGGGTKLTVQG
notes: fully human IgG2 lambda, Campaign 2, recombinant
B2: mAb 5B5.1 (antibody, human IgG2, lambda, V domains shown)
VH: QVQLVQSGAEVKKPGASVKVSCKASGYTFTDYYINWVRQAPGQGLEWMGWINPNSGGTDYAQKFQGRVTMTRDTSIRTAYMELNRLTSDDTAVYYCAREYGGYEDWFDPWGQGTLVTVSS
VL: QSVLTQPPSVSGAPGQRVTISCTGSNSNIGAGFDVHWYQQLPGTVPKLLIYGNNNRPSGVPDRFSGSKSGTSASLAITGLQAEDEADYYCQSYDSRLTVFGGGTKLTVLG
notes: fully human IgG2 lambda, Campaign 2, recombinant; same chains as 5B5.2
B3: mAb 5H3.1 (antibody, human IgG2, lambda, V domains shown)
VH: QVQLVQSGAEVKKPGASVKVSCKASGYTFTDYYMNWVRQAPGQGLEWMGWINPNSGGTKYAQKFQGRVTMTRDTSIRTAYMELSRLRSDDTAVYYCAREYGGNSDWFDPWGQGTLVTVSS
VL: QSVLTQPPSVSGAPGQRVTISCTGSSSNIGAGYDVHWYQQLPGTAPKLLIYGNSNRPSGVPDRFSGSKSGTSASLAITGLQAEDEADYYCQSYDNRLSDSVVIGGGTKLAVQG
notes: as for B1

Key:
human Orai1 [1] = molecular target: T1, human Orai1 (human, UniProt Q96D31 1-301); test: FACS Kd, AM1-CHO/hOrai1/hSTIM1-YFP cells
T1 construct: on AM1-CHO/hOrai1/hSTIM1-YFP, AM1/hOrai1, HEK-293 transfectants, endogenous on Jurkat and blood cells; in Westerns from cell lysates; also called hOrai1; CRACM1
T1 sequence (Q96D31 whole entry): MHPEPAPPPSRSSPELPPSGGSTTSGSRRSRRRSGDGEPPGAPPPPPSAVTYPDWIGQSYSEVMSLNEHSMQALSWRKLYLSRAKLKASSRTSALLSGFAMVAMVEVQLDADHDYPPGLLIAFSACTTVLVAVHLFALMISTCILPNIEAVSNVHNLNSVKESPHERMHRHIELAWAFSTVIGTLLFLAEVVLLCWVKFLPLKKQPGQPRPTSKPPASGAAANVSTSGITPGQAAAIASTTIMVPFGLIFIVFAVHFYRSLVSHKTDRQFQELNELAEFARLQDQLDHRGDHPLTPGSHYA
Protocol: The equilibrium plates were centrifuged at 500 g for 3 minutes and cell pellets were washed twice with 200 μL of ice cold FACS buffer (1×D-PBS+2% FBS). The cells were then incubated with a secondary antibody, goat anti-human Fc Cy5 at 5 μg/mL and 100 μL per well for 1 h on ice in the dark. Following the incubation, the cells were washed twice with 200 μL of ice-cold FACS buffer before flow cytometry analysis. The GeoMean values gated on live cell population measure the bound [Ab]. The inverse of the GeoMean values that reflects theoretical free [Ag] in the equilibrium solution was then calculated. The inverse values of the GeoMean read were used in KinExA® Pro software for analysis and Kd calculation for each antibody. The free [Ag] measure was plotted against the starting concentration of titrating component and from these plots at two different cell concentrations the Kd was obtained from curve fitting using n-curve analysis in KinExA Pro software. […] Shown in Table 14 (below) are the equilibrium dissociation constant (Kd) values of invented mAbs determined by FACS Kd measurement.

human Orai1 [2] = molecular target: T1, human Orai1; test: cell-based or functional assay

Binder | Kd (human Orai1 [1]) [nM] | IC50 IFN-γ, whole blood Donor A, recombinant mAb (human Orai1 [2]) [nM] | IC50 IFN-γ, whole blood Donor B, recombinant mAb (human Orai1 [2]) [nM] | IC50 IL-2, whole blood Donor A, recombinant mAb (human Orai1 [2]) [nM] | IC50 IL-2, whole blood Donor B, recombinant mAb (human Orai1 [2]) [nM]
B1 | 0.483 | 2.67 | 1.17 | 3.17 | 0.8
B2 | 0.735 | 0.8 | 42.9 | 1.34 | 1.14
B3 | 0.649 | 0.1 | 2.55 | 0.87 | 1.59
